Source: patent publication EP4786492A1
Where “and” joins values, the source holds several entries; their conditions need not be identical. Identical values can stand only once.

How the values were obtained:
[1] = biological target: monkey DLL3 on CHO K1-cyno DLL3 cells (cynomolgus monkey DLL3 extracellular segment joined to EpCAM transmembrane and intracellular regions) (cynomolgus monkey); test: FACS, CHO K1-cyno DLL3 cells, 4 nM antibody
[2] = biological target: monkey DLL3 on CHO K1-cyno DLL3 cells (cynomolgus monkey DLL3 extracellular segment joined to EpCAM transmembrane and intracellular regions) (cynomolgus monkey); test: FACS, CHO K1-cyno DLL3 cells, 0.16 nM antibody
[3] = biological target: monkey DLL3 on CHO K1-cyno DLL3 cells (cynomolgus monkey DLL3 extracellular segment joined to EpCAM transmembrane and intracellular regions) (cynomolgus monkey); test: FACS, CHO K1-cyno DLL3 cells, 0.032 nM antibody
[4] = biological target: monkey DLL3 on CHO K1-cyno DLL3 cells (cynomolgus monkey DLL3 extracellular segment joined to EpCAM transmembrane and intracellular regions) (cynomolgus monkey); test: FACS, CHO K1-cyno DLL3 cells, 0.0064 nM antibody
[5] = biological target: human DLL3 endogenously expressed on SHP77 and NCI-H82 cells (human) (UniProt Q9NYJ7); test: FACS SHP77 cells, 4 nM
Chain of human DLL3 endogenously expressed on SHP77 and NCI-H82 cells (human) (Q9NYJ7 27-618): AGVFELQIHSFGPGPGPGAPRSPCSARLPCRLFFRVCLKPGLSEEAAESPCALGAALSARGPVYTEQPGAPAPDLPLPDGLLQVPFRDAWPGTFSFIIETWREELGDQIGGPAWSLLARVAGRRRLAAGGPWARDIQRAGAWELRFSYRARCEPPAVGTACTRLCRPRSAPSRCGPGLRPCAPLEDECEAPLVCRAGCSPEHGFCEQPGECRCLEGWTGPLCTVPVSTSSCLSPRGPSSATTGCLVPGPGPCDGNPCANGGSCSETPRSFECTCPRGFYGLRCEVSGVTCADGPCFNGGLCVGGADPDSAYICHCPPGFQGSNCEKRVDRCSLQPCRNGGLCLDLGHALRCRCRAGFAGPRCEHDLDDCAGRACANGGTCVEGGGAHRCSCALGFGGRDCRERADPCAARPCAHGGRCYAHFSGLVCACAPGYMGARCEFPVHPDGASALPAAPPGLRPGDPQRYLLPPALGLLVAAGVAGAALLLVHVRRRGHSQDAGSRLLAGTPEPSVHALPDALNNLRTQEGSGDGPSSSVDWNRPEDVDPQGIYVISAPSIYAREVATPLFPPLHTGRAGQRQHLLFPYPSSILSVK

[6] = biological target: human DLL3 endogenously expressed on SHP77 and NCI-H82 cells (human) (UniProt Q9NYJ7); test: FACS SHP77 cells, 0.8 nM
[7] = biological target: monkey DLL3 on CHO K1-cyno DLL3 cells (cynomolgus monkey DLL3 extracellular segment joined to EpCAM transmembrane and intracellular regions) (cynomolgus monkey); test: FACS, CHO K1-cyno DLL3 cells, 0.00128 nM antibody
[8] = biological target: human DLL3 endogenously expressed on SHP77 and NCI-H82 cells (human) (UniProt Q9NYJ7); test: FACS SHP77 cells, 0.00128 nM
[9] = biological target: monkey DLL3 on CHO K1-cyno DLL3 cells (cynomolgus monkey DLL3 extracellular segment joined to EpCAM transmembrane and intracellular regions) (cynomolgus monkey); test: FACS, CHO K1-cyno DLL3 cells, 0.8 nM antibody
[10] = biological target: human DLL3 endogenously expressed on SHP77 and NCI-H82 cells (human) (UniProt Q9NYJ7); test: FACS SHP77 cells, 100 nM
[11] = biological target: human DLL3 endogenously expressed on SHP77 and NCI-H82 cells (human) (UniProt Q9NYJ7); test: FACS SHP77 cells, 0.032 nM
[12] = biological target: human DLL4 protein (human) (UniProt Q9NR61); test: ELISA, maximum over 0.1-100 nM
Chain of human DLL4 protein (human) (Q9NR61 27-524 limits assumed): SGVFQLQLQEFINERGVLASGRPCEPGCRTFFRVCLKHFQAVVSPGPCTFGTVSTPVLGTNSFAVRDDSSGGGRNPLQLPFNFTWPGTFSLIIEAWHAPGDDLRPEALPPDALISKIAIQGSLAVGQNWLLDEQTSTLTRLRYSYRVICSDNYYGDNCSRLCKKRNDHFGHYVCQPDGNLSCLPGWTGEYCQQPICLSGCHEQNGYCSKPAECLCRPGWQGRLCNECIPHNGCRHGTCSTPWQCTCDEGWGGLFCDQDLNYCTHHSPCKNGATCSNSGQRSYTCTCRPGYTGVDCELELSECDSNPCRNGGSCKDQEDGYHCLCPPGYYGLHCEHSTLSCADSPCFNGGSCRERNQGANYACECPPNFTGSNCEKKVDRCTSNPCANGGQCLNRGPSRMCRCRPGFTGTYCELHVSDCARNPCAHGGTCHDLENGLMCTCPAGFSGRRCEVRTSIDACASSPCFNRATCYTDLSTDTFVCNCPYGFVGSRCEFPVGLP

[13] = biological target: human DLL1 protein (human) (UniProt O00548); test: ELISA, maximum over 0.1-100 nM
Chain of human DLL1 protein (human) (O00548 18-540 limits assumed): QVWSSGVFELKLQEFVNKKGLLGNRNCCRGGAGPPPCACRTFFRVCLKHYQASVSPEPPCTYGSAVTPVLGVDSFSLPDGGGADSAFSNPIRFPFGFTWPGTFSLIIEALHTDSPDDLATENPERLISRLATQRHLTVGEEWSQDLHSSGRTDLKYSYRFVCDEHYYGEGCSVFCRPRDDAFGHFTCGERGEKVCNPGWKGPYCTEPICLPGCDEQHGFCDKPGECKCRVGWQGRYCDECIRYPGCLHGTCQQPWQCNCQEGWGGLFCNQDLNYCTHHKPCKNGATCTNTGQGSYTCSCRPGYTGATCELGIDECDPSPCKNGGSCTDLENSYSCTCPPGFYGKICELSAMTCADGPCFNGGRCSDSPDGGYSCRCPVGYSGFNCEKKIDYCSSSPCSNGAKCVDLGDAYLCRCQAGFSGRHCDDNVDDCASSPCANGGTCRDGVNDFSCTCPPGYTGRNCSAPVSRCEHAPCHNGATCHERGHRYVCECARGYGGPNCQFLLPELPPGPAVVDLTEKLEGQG

[14] = biological target: human DLL3 endogenously expressed on SHP77 and NCI-H82 cells (human) (UniProt Q9NYJ7); test: FACS SHP77 cells, 20 nM
[15] = biological target: monkey DLL3 on CHO K1-cyno DLL3 cells (cynomolgus monkey DLL3 extracellular segment joined to EpCAM transmembrane and intracellular regions) (cynomolgus monkey); test: FACS, CHO K1-cyno DLL3 cells, 20 nM antibody
[16] = biological target: monkey DLL3 on CHO K1-cyno DLL3 cells (cynomolgus monkey DLL3 extracellular segment joined to EpCAM transmembrane and intracellular regions) (cynomolgus monkey); test: FACS, CHO K1-cyno DLL3 cells, 100 nM antibody
[17] = biological target: human DLL3 endogenously expressed on SHP77 and NCI-H82 cells (human) (UniProt Q9NYJ7); test: FACS SHP77 cells, 0.0064 nM
[18] = biological target: human DLL3 endogenously expressed on SHP77 and NCI-H82 cells (human) (UniProt Q9NYJ7); test: FACS SHP77 cells, 0.16 nM

Chain of monkey DLL3 on CHO K1-cyno DLL3 cells (cynomolgus monkey DLL3 extracellular segment joined to EpCAM transmembrane and intracellular regions) (cynomolgus monkey) (chain, as listed by the source limits assumed): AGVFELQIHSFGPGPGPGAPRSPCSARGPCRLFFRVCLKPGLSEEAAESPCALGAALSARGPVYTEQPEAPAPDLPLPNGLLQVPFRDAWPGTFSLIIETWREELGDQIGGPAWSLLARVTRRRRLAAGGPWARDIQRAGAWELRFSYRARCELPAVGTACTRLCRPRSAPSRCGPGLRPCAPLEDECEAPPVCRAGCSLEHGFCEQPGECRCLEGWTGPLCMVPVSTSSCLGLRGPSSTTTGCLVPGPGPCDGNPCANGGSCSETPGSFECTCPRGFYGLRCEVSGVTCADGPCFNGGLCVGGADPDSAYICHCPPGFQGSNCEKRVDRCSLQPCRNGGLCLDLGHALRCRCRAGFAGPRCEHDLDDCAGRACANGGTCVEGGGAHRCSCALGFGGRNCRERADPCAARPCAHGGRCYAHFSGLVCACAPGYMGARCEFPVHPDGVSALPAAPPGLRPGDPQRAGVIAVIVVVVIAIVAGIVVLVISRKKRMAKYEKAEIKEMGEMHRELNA

Row | Substance | MFI [1] | MFI [2] | MFI [3] | MFI [4] | MFI [5] | MFI [6] | MFI [7] | MFI [8] | MFI [9] | MFI [10] | MFI [11] | Emax of OD450 nm binding value [12] | Emax of OD450 nm binding value [13] | MFI [14] | MFI [15] | MFI [16] | MFI [17] | MFI [18]
1 | SC16.56 (antibody) | 5040 MFI and 2330 MFI | 1970 MFI and 700 MFI | 690 MFI and 299 MFI | 314 MFI and 189 MFI | 476 MFI and 517 MFI | 465 MFI and 478 MFI | 161 MFI and 185 MFI | 188 MFI and 146 MFI | 4510 MFI and 1900 MFI | 529 MFI and 628 MFI | 334 MFI and 234 MFI | 0.05 OD450 | 0.05 OD450 | 500 MFI and 566 MFI | 5010 MFI and 2630 MFI | 4930 MFI and 2330 MFI | 235 MFI and 146 MFI | 432 MFI and 411 MFI
2 | hIgG1 (antibody) | – | – | – | – | – | – | – | – | – | – | – | 0.04 OD450 and 0.07 OD450 and 0.05 OD450 | 0.04 OD450 and 0.05 OD450 and 0.07 OD450 | – | – | – | – | –
